Experimental data as given in publication PMC3804942 (The Journal of Experimental Medicine, 2013).
Read-outs that look alike come from different tables or passages of the source.

Experiments:
[1] = biological target: T1, RAGE V-C1 (crystallography) (human, UniProt Q15109 23-237); experiment: X-ray crystallography
crystal structure = biological target: the molecule itself; experiment: crystal structure
RAGE mutant 0 = RAGE mutant 0 (UniProt Q15109 23-237, K110A;R178A;R179A); experiment: fluorescence polarization
[2] = biological target: T2, RAGE extracellular domain V-C1-C2 (His) (human, UniProt Q15109 23-342); experiment: AlphaScreen
RAGE V domain (His) = RAGE V domain (His) (human, UniProt Q15109 23-121); experiment: AlphaScreen
[3] = biological target: T2, RAGE extracellular domain V-C1-C2 (His); experiment: AlphaScreen; remark: listed apart in the source
[4] = biological target: T1, RAGE V-C1 (crystallography); experiment: X-ray crystallography; remark: listed apart in the source

B1: ODN 752/753 vaccinia repeat 22mer (dsDNA)
DNA 1: CCATGACTGTAGGAAACTCTAG
DNA 2: GCTAGAGTTTCCTACAGTCATG
binding result [1]: binds

B2: Human RAGE V-C1 domain (residues 23-237) (domain or fragment)
chain: AQNITARIGEPLVLKCKGAPKKPPQRLEWKLNTGRTEAWKVLSPQGGGPWDSVARVLPNGSLFLPAVGIQDEGIFRCQAMNRNGKETKSNYRVRVYQIPGKPEIVDSASELTAGVPNKVGTCVSEGSYPAGTLSWHLDGKPLVPNEKGVSVKEQTRRHPETGLFTLQSELMVTPARGGDPRPTFSCSFSPGLPRHRALRTAPIQPRVWEPVPLEE
binding result (crystal structure): binds

B3: ODN 787/788 20mer (dsDNA)
DNA 1: CCATCAAAGAGAGAAAGAGC
DNA 2: GCTCTTTCTCTCTTTGATGG
binding result (RAGE mutant 0): binds

B4: ODN 2336 (CpG-A) (ssDNA)
DNA: GGGGACGACGTCGTGGGGGGG
modifications: phosphorothioate at positions marked * (G*G*GGACGACGTCGTGG*G*G*G*G*G)
binding result [2]: binds

B5: ODN 2006 (CpG-B) (ssDNA)
DNA: TCGTCGTTTTGTCGTTTTGTCGTT
modifications: backbone of assayed form not in material; probably phosphorothioate
binding result (RAGE V domain (His)): binds
binding result [3]: binds

B6: ODN 981/982 CpG 22mer (dsDNA)
DNA 1: CTGCAACGATGCTACGAACGTG
DNA 2: CACGTTCGTAGCATCGTTGCAG
binding result [4]: binds
